Reference: US7572594B2, “Screening assays for agonists or antagonists or receptor activator of NF-κB” (Immunex Corporation, priority 2000, dated 2009)
“Also recorded” adds a separate entry of the source.

Legend:
[1] = tested on: mouse TRAP promoter (SEQ ID NO:12); assay: mouse TRAP promoter/luciferase reporter in 293/EBNA cells; assay type: cell-based; details: 24 hours after transfection, 0.4 ng RANK vector, 20 ng RANK-L vector
Description: This example describes the activation of the TRAP promoter. A 2.6 kb DNA fragment containing the human TRAP promoter was obtained by digesting the plasmid pBL2HT2.2 with the restriction endonuclease ApaI. The cloning of the human TRAP gene 5′ region and the construction of pBL2HT2.2 are fully described in Reddy et al. (Bone 16:587-593 (1995)). A DNA containing the mouse TRAP promoter (SEQ ID NO:12) and a DNA containing the murine MMP-9 promoter (SEQ ID NO:11) also were used for these experiments. DNAs containing the promoters were fused to the luciferase reporter gene. These promoter/reporter constructs were transfected into human 293/EBNA cells along with various combinations of expression vectors that encoded full-length human RANK (SEQ ID NO:2) and human full-length RANK-L proteins (SEQ ID NO:6).
For the mouse TRAP promoter (SEQ ID NO:12), 2×10^5 293/EBNA cells were transfected using DEAE/dextran with 40 ng of a plasmid encoding approximately 2 kb of the mouse TRAP promoter (SEQ ID NO:12) fused to a luciferase reporter, 20 ng of an expression vector encoding RANK-L (SEQ ID NO:6), and 0.4 ng of an expression vector encoding RANK (SEQ ID NO:2). Twenty four hours after transfection, luciferase activity in cell lysates was measured according to manufacturer's instructions (Promega) using a EG&G/Berthold luminometer. […]

[2] = tested on: c-src tyrosine kinase; assay: c-src immune complex kinase assay in RANK −/− osteoclast precursors infected with RANK retrovirus; assay type: cell-based, mouse
Method: Experiments were conducted in which DNA encoding wild-type or human RANK/TRAF6 binding mutant (RANK Δ340-421) was introduced into hematopoietic cells isolated from RANK −/− mice. Full-length and mutant human RANK DNAs were subcloned into the pBMNZ retroviral vector as previously described (Kinsella and Nolan, 1996, Human Gene Therapy 7:1405-1413). Infectious RANK-containing retrovirus was produced in 293-E Phoenix packaging cells as described (Kinsella and Nolan, 1996). Supernatants from these cells were used as a source of infectious virus particles.
The generation of the RANK −/− mice used in these assays has been described previously (Dougall et al., 1999). Spleen cells were isolated from 3-6 week old RANK−/− mice and enriched for osteoclast precursors by depleting the initial cell population of various types of cells other than osteoclast precursors. For this “depletion” step, the cells were incubated with biotinylated antibodies against CD3 (specific for T cells), Ter-119 (specific for erythrocytes), and GR-1 (specific for granulocytes). After the antibodies had bound to their respective target cells, streptavidin-conjugated magnetic beads were added to the culture, and the mixture of cells was passed over magnetic columns (MACS depletion columns; MILLTENNYI). […]
To induce c-src and F-actin rings, recombinant mRANK-L/leucine zipper protein was added to the cultures at a concentration of 1 μg/ml for various times after which the cells were lysed in a buffer containing 50 mM HEPES (pH 7.2), 10% glycerol, 250 mM NaCl and 1% Triton X-100. […] C-src activity in the immune complex was monitored using a commercially available assay kit (Upstate Biotechnology, Lake Placid, N.Y.). […] The phosphorylated substrate peptide was then separated from the residual labeled ATP using phosphocellulose paper and labeled peptide was quantified using a scintillation counter. […]

[3] = tested on: spleen cells from RANK −/− mice; assay: CaPO4 resorption (pit formation) assay; assay type: cell-based, mouse; details: 5 days in 40 ng/ml CSF-1 and 200 ng/ml mRANK-L on CaPO4 film; listed as full-length RANK
Description: The resorption of CaPO4, upon which this assay is based, is considered to be a measure of osteoclast activity. Spleen cells were isolated from 3-6 week old RANK −/− mice and treated as described in Example 9 to remove cells expressing the CD3, Ter-119, and GR-1 antigens. Cells not expressing any of these antigens were harvested and infected as described in Example 9 with retroviral vector particles containing full-length or TRAF6 binding site deletion mutants of RANK.
Following infection, the spleen cells were harvested and plated in MEM containing 10% fetal bovine serum containing 40 ng/ml CSF-1 and 200 ng/ml mRANK-L onto 16 well quartz slides coated with a thin film of CaPO4 (Osteologic, BD Biosystems). After 5 days in culture, the slides were washed, the cells removed by washing with bleach, and the slides washed again with buffer. […] The number of pits in the CaPO4 film is a measure of the extent to which the RANK-L induced the cells grown on that slide to differentiate into osteoclasts.
If desired, the CaPO4 film can be stained using a 0.5% solution of alizarin red for 4 to 5 minutes followed by washing in water. After staining, the resorptive lacunae are visualized by phase contrast microscopy as a clear area on a red background.

B1: wild type RANK: full-length human RANK, receptor activator of NF-κB (SEQ ID NO:2), expressed from vector or retrovirus (protein, listed as Homo sapiens)
chain: MAPRARRRRPLFALLLLCALLARLQVALQIAPPCTSEKHYEHLGRCCNKCEPGKYMSSKCTTTSDSVCLPCGPDEYLDSWNEEDKCLLHKVCDTGKALVAVVAGNSTTPRRCACTAGYHWSQDCECCRRNTECAPGLGAQHPLQLNKDTVCKPCLAGYFSDAFSSTDKCRPWTNCTFLGKRVEHHGTEKSDAVCSSSLPARKPPNEPHVYLPGLIILLLFASVALVAAIIFGVCYRKKGKALTANLWHWINEACGRLSGDKESSGDSCVSTHTANFGQQGACEGVLLLTLEEKTFPEDMCYPDQGGVCQGTCVGGGPYAQGEDARMLSLVSKTEIEEDSFRQMPTEDEYMDRPSQPTDQLLFLTEPGSKSTPPFSEPLEVGENDSLSQCFTGTQSTVGSESCNCTEPLCRTDWTPMSSENYLQKEVDSGHCPHWAASPSPNWADVCTGCRNPPGEDCEPLVGSPKRGPLPQCAYGMGLPPEEEASRTEARDQPEDGADGRLPSSARAGAGSGSSPGGQSPASGNVTGNSNSTFISSGQVMNFKGDIIVVYVSQTSQEGAAAAAEPMGRPVQEETLARRDSFAGNGPRFPDPCGGPEGLREPEKASRPVQEQGGAKA
- increase of reporter expression (luciferase) [1]: approximately 2 fold
- 32P incorporated into a c-src-specific substrate versus extracts from cells defective in RANK ([2]; cell extracts following differentiation): about 15 fold
- c-src activity ([2]; cells differentiated after retroviral infection, background = uninfected RANK −/− cells): high levels of c-src activity
- CaPO4 resorption [3]: resorbed the CaPO4 matrix; also recorded: high levels of CaPO4 resorption
